This is an account of results in PMC10439028, “SGLT5 is the renal transporter for 1,5-anhydroglucitol, a major player in two rare forms of neutropenia” (Cellular and Molecular Life Sciences: CMLS, 2023).

Substrate in data set [1]: OC[C@H]1OC(O)[C@@H](O)[C@@H](O)[C@@H]1O
The data set is described as follows: Radioactive uptake assay (saturation kinetics) in HEK293T cells stably overexpressing human SGLT4. The data set is classed as cell-based. To be noted: other: transport of the labelled substrate, Fig. 2B; pH 7.4; 37.0 °C. An excerpt:
(§1) This assay was used to study (1) the transport of 1,5-AG or mannose by the HEK293T model cell lines that stably overexpressed the various transporters or by the transiently transfected HEK293T cells using JetPEI® as a transfection agent prepared as described above and (2) the substrate specificity of each transporter.
For a typical transporter experiment we proceeded as follows. […] To minimize cell loss during the various washing steps in the radioactive uptake experiments, the wells where the cells were seeded were previously coated with poly- D-lysine, which improved their adhesion to the plastic surface of the wells. For this, each well of the 24-well plates was treated with 200 µl of a 0.01% poly-L-lysine solution for 10 min, washed 3 times with 1 ml of sterilized water and left to dry for 2 h. Only then could the 24-well plates be seeded with the appropriate cell lines and cultured overnight at 37 °C in 5% CO2. […]
(§2) Once the uptake medium was added to the cells, the plates were incubated at 37 °C in 5% CO2 during the required time. […] In each experiment, the transport activities were calculated after subtracting a “blank” value, corresponding to the radioactivity in the appropriate control cells (HEK293T cells that were stably or transiently transfected with one of the parent plasmids pEF6/MycHisA, pEF6HisB, pUB82 or pUB83 with no inserted cDNA) that were analyzed in parallel.

Substrate in data set [2]: OC[C@H]1OC[C@H](O)[C@@H](O)[C@@H]1O
The data set can be described thus: Radioactive uptake assay (saturation kinetics) in HEK293T cells stably overexpressing human SGLT5-iso2. It counts as cell-based. To be noted: pH 7.4, 37.0 °C.
Source text: as §1
(§3) For a typical transporter experiment we proceeded as follows. […] To minimize cell loss during the various washing steps in the radioactive uptake experiments, the wells where the cells were seeded were previously coated with poly- D-lysine, which improved their adhesion to the plastic surface of the wells. For this, each well of the 24-well plates was treated with 200 µl of a 0.01% poly-L-lysine solution for 10 min, washed 3 times with 1 ml of sterilized water and left to dry for 2 h. Only then could the 24-well plates be seeded with the appropriate cell lines and cultured overnight at 37 °C in 5% CO2.
(§4) On day two, the radioactive uptake assay could be performed. The cell culture media was removed by aspiration and cells were incubated for 20 min at 37 °C and 5% CO2 with a basal medium (10 mM HEPES, pH 7.4, 1 mM CaCl2, 1 mM MgCl2, 2 mM KCl) containing 140 mM choline chloride to deplete intracellular […] ions. This was subsequently replaced with the uptake medium (basal medium + 140 mM NaCl, 25 μM cytochalasin B, 1 mg/ml BSA) containing either radioactive U-[^14C]-mannose (15,000 cpm/well) or 2-[^3H]-1,5-AG (30,000 cpm/well) and respectively, non-radioactive mannose or 1,5-AG, at the required concentration in the experiment. […]
as §2

Substrate in data set [3]: OC[C@H]1OC(O)[C@@H](O)[C@@H](O)[C@@H]1O
Described as above. It counts as cell-based. The settings on record: other: transport of the labelled substrate, Michaelis-Menten fit, Fig. 2B; pH 7.4; 37.0 °C.
Source text: as §1, §3, §4, §2

Substrate in data set [4]: OC[C@H]1OC[C@H](O)[C@@H](O)[C@@H]1O
The data set can be described thus: 1,5-AG uptake in HEK293T cells overexpressing SGLT5 variant Asn96Ile. It counts as cell-based, human. To be noted: other: variant Asn96Ile (rs148178887); pH 7.4; 37.0 °C. As to the method:
as §3
(§5) On day two, the radioactive uptake assay could be performed. The cell culture media was removed by aspiration and cells were incubated for 20 min at 37 °C and 5% CO2 with a basal medium (10 mM HEPES, pH 7.4, 1 mM CaCl2, 1 mM MgCl2, 2 mM KCl) containing 140 mM choline chloride to deplete intracellular Na^2+ ions. […]
(§6) Once the uptake medium was added to the cells, the plates were incubated at 37 °C in 5% CO2 during the required time. […] In each experiment, the transport activities were calculated after subtracting a “blank” value, corresponding to the radioactivity in the appropriate control cells (HEK293T cells that were stably or transiently transfected with one of the parent plasmids pEF6/MycHisA, pEF6HisB, pUB82 or pUB83 with no inserted cDNA) that were analyzed in parallel. […]

Substrate in data set [5]: OC[C@H]1OC[C@H](O)[C@@H](O)[C@@H]1O
The data set can be described thus: 1,5-AG uptake in HEK293T cells overexpressing SGLT5 variant Ala522Val. The settings on record: other: variant Ala522Val (rs12604020); pH 7.4; 37.0 °C. It counts as cell-based, human. As to the method:
as §3, §5, §6

Substrate in data set [6]: OC[C@H]1OC[C@H](O)[C@@H](O)[C@@H]1O
The data set can be described thus: 1,5-AG uptake in HEK293T cells overexpressing SGLT5 variant Arg401His. The settings on record: other: variant Arg401His (rs754390288); pH 7.4; 37.0 °C. It counts as cell-based, human. As to the method: as §3, §5, §6

Substrate in data set [7]: OC[C@H]1OC(O)[C@@H](O)[C@@H](O)[C@@H]1O
The data set is described as follows: Radioactive uptake assay (saturation kinetics) in HEK293T cells expressing mouse SGLT4. The data set is classed as cell-based. To be noted: other: 30 min, Supplementary Fig. 4; pH 7.4; 37.0 °C. How it is done:
as §3
On day two, the radioactive uptake assay could be performed. […]
as §6
Supplementary Fig. 4: Transport activities for 1,5-anhydroglucitol and mannose of recombinant mouse SGLT4 and SGLT5 isoforms measured in HEK293T cells. […]

Numbering of substitutions follows the chain as printed. In names and notes the source's numbering stands.

B1: human SGLT4 (Homo sapiens) (protein)
chain: MSKELAAMGPGASGDGVRTETAPHIALDSRVGLHAYDISVVVIYFVFVIAVGIWSSIRASRGTIGGYFLAGRSMSWWPIGASLMSSNVGSGLFIGLAGTGAAGGLAVGGFEWNATWLLLALGWVFVPVYIAAGVVTMPQYLKKRFGGQRIQVYMSVLSLILYIFTKISTDIFSGALFIQMALGWNLYLSTGILLVVTAVYTIAGGLMAVIYTDALQTVIMVGGALVLMFLGFQDVGWYPGLEQRYRQAIPNVTVPNTTCHLPRPDAFHILRDPVSGDIPWPGLIFGLTVLATWCWCTDQVIVQRSLSAKSLSHAKGGSVLGGYLKILPMFFIVMPGMISRALFPDEVGCVDPDVCQRICGARVGCSNIAYPKLVMALMPVGLRGLMIAVIMAALMSSLTSIFNSSSTLFTIDVWQRFRRKSTEQELMVVGRVFVVFLVVISILWIPIIQSSNSGQLFDYIQAVTSYLAPPITALFLLAIFCKRVTEPGAFWGLVFGLGVGLLRMILEFSYPAPACGEVDRRPAVLKDFHYLYFAILLCGLTAIVIVIVSLCTTPIPEEQLTRLTWWTRNCPLSELEKEAHESTPEISERPAGECPAGGGAAENSSLGQEQPEAPSRSWGKLLWSWFCGLSGTPEQALSPAEKAALEQKLTSIEEEPLWRHVCNINAVLLLAINIFLWGYFA
notes: expressed in transfected cells
Broadly, the Km is the concentration of substrate that gives half-maximal velocity. As to B1, in data set [1], the Michaelis-Menten constant (Km) is 81 ± 8 µM.

B2: human SGLT5 (Homo sapiens) (protein)
chain: MAANSTSDLHTPGTQLSVADIIVITVYFALNVAVGIWSSCRASRNTVNGYFLAGRDMTWWPIGASLFASSEGSGLFIGLAGSGAAGGLAVAGFEWNATYVLLALAWVFVPIYISSEIVTLPEYIQKRYGGQRIRMYLSVLSLLLSVFTKISLDLYAGALFVHICLGWNFYLSTILTLGITALYTIAGGLAAVIYTDALQTLIMVVGAVILTIKAFDQIGGYGQLEAAYAQAIPSRTIANTTCHLPRTDAMHMFRDPHTGDLPWTGMTFGLTIMATWYWCTDQVIVQRSLSARDLNHAKAGSILASYLKMLPMGLIIMPGMISRALFPDDVGCVVPSECLRACGAEVGCSNIAYPKLVMELMPIGLRGLMIAVMLAALMSSLTSIFNSSSTLFTMDIWRRLRPRSGERELLLVGRLVIVALIGVSVAWIPVLQDSNSGQLFIYMQSVTSSLAPPVTAVFVLGVFWRRANEQGAFWGLIAGLVVGATRLVLEFLNPAPPCGEPDTRPAVLGSIHYLHFAVALFALSGAVVVAGSLLTPPPQSVQIENLTWWTLAQDVPLGTKAGDGQTPQKHAFWARVCGFNAILLMCVNIFFYAYFA
notes: as for B1
Turning to B2, the Michaelis constant (Km) in data set [2] (other: hSGLT5 WT, Table 1 experiments) was found to be 226 ± 7 µM; in data set [2] (other: transport of the labelled substrate, Michaelis-Menten fit, Fig. 2B), 167 µM; in data set [3] it was 1729 ± 568 µM.

B3: hSGLT5 Asn96Ile (Homo sapiens; N96I) (protein)
chain: B2 chain with N96I
notes: pUB83-hSGLT5-iso2 as well as the various SGLT5 mutants obtained were used to transduce HEK293T cells; expressed in transfected cells; host or cells: HEK293T, lentiviral transduction (pUB83)
Take B3: the Km in data set [4] was 1565 ± 302 µM.

B4: hSGLT5 Ala522Val (Homo sapiens; A522V) (protein)
chain: B2 chain with A522V
notes: as for B3
On to B4, for which the Michaelis-Menten constant (Km) in data set [5] came out at 210 ± 12 µM.

B5: hSGLT5 Arg401His (Homo sapiens; R401H) (protein)
chain: B2 chain with R401H
notes: as for B3
Regarding B5, the Michaelis-Menten constant (Km) in data set [6] was 331 ± 13 µM.

B6: mouse SGLT4 (Mus musculus) (protein)
chain: MNTELVAMEPGVSRNGVRTETTTNPSLGLHTYDIVVVVIYFVFVLAVGIWSSIRASRGTVGGYFLAGRSMTWWPIGASLMSSNVGSGLFIGLAGTGAAGGLAVGGFEWNATFLLLALGWIFVPVYIAAGVVTMPQYLKKRFGGQRIQVYMSVLSLILYIFTKISTDIFSGALFIQMALGWNLYLSTVILLVVTAVYTIAGGLTAVIYTDALQTVIMVGGALVLMFLGFQEVGWYPGLQQLYRQAIPNTTVPNTTCHLPRPDAFHMLRDPVNGDIPWPGLIFGLTVLATWCWCTDQVIVQRSLAAKNLSHAKGGSVLGGYLKILPMFFIVMPGMISRALYPDEVACVDPDICQRVCGARVGCSNIAYPKLVMALMPVGLRGLMIAVIMAALMSSLTSIFNSSSTLFAIDVWQRFRRQASEQELMVVGRLFVVFLVVISILWIPIIQSSNSGQLFDYIQSITSYLAPPITALFLLAIFCKRVNEPGAFWGLMFGLVVGILRMILEFSYSAPACGEMDRRPAVLKDFHYLYFALLLCGLTAIIIVVISFFTEPIPDDKLARLTWWTRNCAVSDLQKKTSVSVNNTEDDNSPGLAGRPVVEGPAGDEEEANTTQGPEQPGALHRSWGKWLWNWFCGLSGAPQQALSPAEKAVLEQKLTSIEEEPLWRRVCNINAIILLAINIFLWGYFA
notes: expressed in transfected cells; host or cells: HEK293T
For the protein B6, the Km in data set [7] turned out to be 200 µM.
